The text below walks through data of PMC4323857.

The experiment addresses D4 self-association region of P6 (amino acids 414-520), in pEG202 (Cauliflower mosaic virus isolate CM1841). Nature of the experiment: two-hybrid.

“Full-length P6 with the D3b mutation V324A, in pJG4-5 (natural protein)” showed a fold less β-galactosidase activity than the wild type of 9 fold.
